The results in this text go back to patent US20230265151A1, “GIP/GLP1 CO-AGONIST COMPOUNDS” (priority 2020, published 2023).

First the molecules themselves.
B1: Example 32 (peptide)
peptide: YXEGTXTSDXSIXLDXKAQXEFIXKLIEGGPSSGAPPPS
modifications: Aib2, αMeF(2F)6, 4Pal10, αMeL13, Orn16, Aib20, D-Glu24, K17 and K25: K(AEEA2-(γ-Glu)-CO-(CH2)14-CH3), C-terminal NH2
B2: Example 29 (peptide)
peptide: B1 peptide with X10K, K25X
modifications: Aib2, αMeF(2F)6, αMeL13, Orn16, Aib20, D-Glu24, αMeY25, K10 and K17: K(AEEA2-(γ-Glu)-CO-(CH2)14-CH3), C-terminal NH2
B3: Example 1 (peptide)
peptide: B1 peptide with K25X, P31K
modifications: Aib2, αMeF(2F)6, 4Pal10, αMeL13, Orn16, Aib20, D-Glu24, αMeY25, K17 and K31: K(AEEA2-(γ-Glu)-CO-(CH2)12-CO2H), C-terminal NH2
B4: Example 2 (peptide)
peptide: B1 peptide with K25X, P31K
modifications: Aib2, αMeF(2F)6, 4Pal10, αMeL13, Orn16, Aib20, D-Glu24, αMeY25, K17 and K31: K(AEEA2-(γ-Glu)-(10-(4-carboxyphenoxy)decanoyl)), C-terminal NH2
B5: Example 6 (peptide)
peptide: B1 peptide with K25X, P31K
modifications: Aib2, αMeF(2F)6, 4Pal10, αMeL13, Orn16, Aib20, D-Glu24, αMeY25, K17 and K31: K(AEEA2-(γ-Glu)-CO-(CH2)10-CO2H), C-terminal NH2
B6: Example 142 (peptide)
peptide: B1 peptide with K25X, P31K
modifications: Aib2, αMeF(2F)6, Bzt10, αMeL13, Orn16, Aib20, D-Glu24, αMeY25, K17 and K31: K(AEEA2-(γ-Glu)-CO-(CH2)12-CO2H), C-terminal NH2
B7: Example 27 (peptide)
peptide: B1 peptide with X10K, K25X
modifications: Aib2, αMeF(2F)6, αMeL13, Orn16, Aib20, D-Glu24, αMeY25, K10 and K17: K(AEEA2-(γ-Glu)-CO-(CH2)12-CO2H), C-terminal NH2
B8: Example 23 (peptide)
peptide: B1 peptide with K25X, E28K
modifications: Aib2, αMeF(2F)6, 4Pal10, αMeL13, Orn16, Aib20, D-Glu24, αMeY25, K17 and K28: K(AEEA2-(γ-Glu)-CO-(CH2)14-CH3), C-terminal NH2
B9: Example 100 (peptide)
peptide: B1 peptide with S11G, K25X, P31K
modifications: Aib2, αMeF(2F)6, 4Pal10, αMeL13, Orn16, Aib20, D-Glu24, αMeY25, K17 and K31: K(AEEA2-(γ-Glu)-CO-(CH2)12-CO2H), C-terminal NH2
B10: Example 102 (peptide)
peptide: B1 peptide with A18G, K25X, P31K
modifications: Aib2, αMeF(2F)6, 4Pal10, αMeL13, Orn16, Aib20, D-Glu24, αMeY25, K17 and K31: K(AEEA2-(γ-Glu)-CO-(CH2)12-CO2H), C-terminal NH2
B11: Example 400 (peptide)
peptide: Y[Aib]EGT[αMePhe(2-F)]TSDV[Aib]I[αMeL]LD[Orn]IAQ[Aib]EFIK([AEEA-γGlu-C14 diacid])[αMeY]LIK([AEEA-γGlu-C14 diacid])GGPSSGAPPPS-NH2
modifications: N-terminus assumed
SMILES: CC[C@H](C)[C@H](NC(=O)[C@H](CCCN)NC(=O)[C@H](CC(=O)O)NC(=O)[C@H](CC(C)C)NC(=O)[C@](C)(CC(C)C)NC(=O)[C@@H](NC(=O)C(C)(C)NC(=O)[C@@H](NC(=O)[C@H](CC(=O)O)NC(=O)[C@H](CO)NC(=O)[C@@H](NC(=O)[C@](C)(Cc1ccccc1F)NC(=O)[C@@H](NC(=O)CNC(=O)[C@H](CCC(=O)O)NC(=O)C(C)(C)NC(=O)[C@@H](N)Cc1ccc(O)cc1)[C@@H](C)O)[C@@H](C)O)C(C)C)[C@@H](C)CC)C(=O)N[C@@H](C)C(=O)N[C@@H](CCC(N)=O)C(=O)NC(C)(C)C(=O)N[C@@H](CCC(=O)O)C(=O)N[C@@H](Cc1ccccc1)C(=O)N[C@H](C(=O)N[C@@H](CCCCNC(=O)COCCOCCNC(=O)CC[C@H](NC(=O)CCCCCCCCCCCCC(=O)O)C(=O)O)C(=O)N[C@@](C)(Cc1ccc(O)cc1)C(=O)N[C@@H](CC(C)C)C(=O)N[C@H](C(=O)N[C@@H](CCCCNC(=O)COCCOCCNC(=O)CC[C@H](NC(=O)CCCCCCCCCCCCC(=O)O)C(=O)O)C(=O)NCC(=O)NCC(=O)N1CCC[C@H]1C(=O)N[C@@H](CO)C(=O)N[C@@H](CO)C(=O)NCC(=O)N[C@@H](C)C(=O)N1CCC[C@H]1C(=O)N1CCC[C@H]1C(=O)N1CCC[C@H]1C(=O)N[C@@H](CO)C(N)=O)[C@@H](C)CC)[C@@H](C)CC
B12: Example 403 (peptide)
peptide: YXEGTXTSDXXIXLDXQAQXEFIKXLIKGGPSSGAPPPS
modifications: Y-Aib-EGT-αMeF(2F)-TSD-4Pal-Aib-I-αMeL-LD-Orn-QAQ-Aib-EFIK((2-[2-(2-Amino-ethoxy)-ethoxy]-acetyl)2-(γ-Glu)-(10-(4-carboxyphenoxy)decanoyl))-αMeY-LIK((2-[2-(2-Amino-ethoxy)-ethoxy]-acetyl)2-(γ-Glu)-(10-(4-carboxyphenoxy)decanoyl))GGPSSGAPPPS-NH2
B13: Example 411 (peptide)
peptide: B12 peptide
modifications: Y-Aib-EGT-αMeF(2F)-TSD-4Pal-Aib-I-αMeL-LD-Orn-QAQ-Aib-EFIK((2-[2-(2-Amino-ethoxy)-ethoxy]-acetyl)2-(γ-Glu)-CO-(CH2)12-CO2H)-αMeY-LIK((2-[2-(2-Amino-ethoxy)-ethoxy]-acetyl)2-(γ-Glu)-CO-(CH2)12-CO2H)GGPSSGAPPPS-NH2
B14: Example 460 (peptide)
peptide: B12 peptide
modifications: Y-Aib-EGT-αMeF(2F)-TSD-4Pal-Aib-I-αMeL-LD-Orn-QAQ-Aib-EFIK((2-[2-(2-Amino-ethoxy)-ethoxy]-acetyl)3-(γ-Glu)-CO-(CH2)12-CO2H)-αMeY-LIK((2-[2-(2-Amino-ethoxy)-ethoxy]-acetyl)3-(γ-Glu)-CO-(CH2)12-CO2H)GGPSSGAPPPS-NH2
B15: Example 464 (peptide)
peptide: B12 peptide
modifications: Y-Aib-EGT-αMeF(2F)-TSD-4Pal-Aib-I-αMeL-LD-Orn-QAQ-Aib-EFIK(2-[2-(2-Amino-ethoxy)-ethoxy]-acetyl)3-(γ-Glu)-(10-(4-carboxyphenoxy)decanoyl)-αMeY-LIK((2-[2-(2-Amino-ethoxy)-ethoxy]-acetyl)3-(γ-Glu)-(10-(4-carboxyphenoxy)decanoyl)GGPSSGAPPPS-NH2)

Positions count from the first letter of the chain named. *1 amine or outer side, *2 acyl side, *3 side chain or, on linkers, in order; H or OH if unused. Where no end group is shown, it is not given here. Side-chain parts run from the residue outwards. [ ]: non-standard residue; d: D form. The star is where a group is joined. αMePhe(2-F) = C[C@](N)(Cc1ccccc1F)C(=O)O; γGlu = O=C(O)[C@H](CCC(=O)[*:2])N[*:1]; C14 diacid = O=C(O)CCCCCCCCCCCCC(=O)*; αMeY = C[C@](N)(Cc1ccc(O)cc1)C(=O)O; αMeL = CC(C)C[C@](C)(N)C(=O)O; Orn = NCCC[C@H](N)C(=O)O; AEEA = NCCOCCOCC(=O)O; Aib = CC(C)(N)C(=O)O Some results are limits rather than exact numbers.

One experiment deals with T1, human GIP receptor (human, UniProt P48546 22-466).
T1 sequence (looked up): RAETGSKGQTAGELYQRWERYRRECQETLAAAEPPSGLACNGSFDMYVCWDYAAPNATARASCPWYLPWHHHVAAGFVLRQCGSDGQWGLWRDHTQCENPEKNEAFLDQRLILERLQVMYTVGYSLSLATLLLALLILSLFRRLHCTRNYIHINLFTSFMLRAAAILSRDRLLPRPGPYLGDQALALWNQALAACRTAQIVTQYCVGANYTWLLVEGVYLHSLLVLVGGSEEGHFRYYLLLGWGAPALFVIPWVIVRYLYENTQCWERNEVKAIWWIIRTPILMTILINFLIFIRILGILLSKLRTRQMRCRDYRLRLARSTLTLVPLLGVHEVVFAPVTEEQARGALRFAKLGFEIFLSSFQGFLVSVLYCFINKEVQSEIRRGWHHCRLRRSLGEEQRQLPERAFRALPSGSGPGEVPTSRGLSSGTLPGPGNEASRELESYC
Description: cell-based or functional assay.
As for B1, the “EC50, cAMP” value is 0.002 nM.

Turning to B2, the “EC50, cAMP” value was 0.00252 nM.

As for B3, the “EC50, cAMP” value stood at 0.0145 nM and the “Emax, cAMP” value came to 90.2%.

On to B4, for which the “EC50, cAMP” value was 0.0154 nM.

As to B5, the “EC50, cAMP” value was determined as 0.0477 nM.

On to B6, for which the “EC50, cAMP” value turned out to be 0.0317 nM.

Regarding B7, the “EC50, cAMP” value is 0.116 nM and the “Emax, cAMP” value came to 88.8%.

In the case of B8, the “EC50, cAMP” value amounted to 0.00299 nM.

In a further experiment the target is human GLP-1 receptor (human, UniProt P43220 24-463). The experiment can be described thus: cell-based or functional assay.
On to B9, for which the “EC50, cAMP” value is 11.4 nM and the “Emax, cAMP” value is 111%.

Turning to B1, the “EC50, cAMP” value is 0.0063 nM and the “Emax, cAMP” value was 119%.

B2: the “EC50, cAMP” value came out at 0.00468 nM and the “Emax, cAMP” value is 100%.

Regarding B3, the “EC50, cAMP” value is 0.925 nM.

Turning to B4, the “EC50, cAMP” value was found to be 1.14 nM.

For B5, the “EC50, cAMP” value turned out to be 2.3 nM.

As for B7, the “EC50, cAMP” value worked out at 2.77 nM.

As for B10, the “EC50, cAMP” value amounted to 19.1 nM.

As for B8, the “EC50, cAMP” value was 0.00722 nM.

The target of another experiment is human glucagon receptor (human, UniProt P47871 26-477). Description: cell-based or functional assay.
On to B9, for which the “EC50, cAMP” value was over 9950 nM.

Regarding B1, the “EC50, cAMP” value was over 9950 nM.

In the case of B2, the “EC50, cAMP” value is over 9950 nM.

As for B3, the “EC50, cAMP” value was over 9950 nM.

Regarding B4, the “EC50, cAMP” value is over 9950 nM.

Consider B5, for which the “EC50, cAMP” value was over 9950 nM.

B6: the “EC50, cAMP” value was over 9950 nM.

As to B7, the “EC50, cAMP” value is over 9950 nM.

In the case of B10, the “EC50, cAMP” value was over 9950 nM.

Turning to B8, the “EC50, cAMP” value was over 9950 nM.

Another experiment concerns the target T2, human GIP receptor (human, UniProt P48546 22-466).
T2 sequence (looked up): T1 sequence (looked up)
The experiment can be described thus: cell-based or functional assay.
With B11, the “cAMP EC50 (1.0% HSA)” value was 16.7 nM.

As to B12, the “cAMP EC50 (1.0% HSA)” value turned out to be 0.711 nM and the “cAMP Emax (1.0% HSA)” value was found to be 91.7%.

With B13, the “cAMP EC50 (1.0% HSA)” value was determined as 1.09 nM.

Turning to B14, the “cAMP EC50 (1.0% HSA)” value came to 0.506 nM.

Regarding B15, the “cAMP EC50 (1.0% HSA)” value stood at 0.316 nM and the “cAMP Emax (1.0% HSA)” value turned out to be 95.5%.

In a further experiment the target is human GLP-1 receptor (human, UniProt P43220 24-463). Description: cell-based or functional assay. This is another data set of the same source.
In the case of B11, the “cAMP EC50 (1.0% HSA)” value was 107 nM.

Turning to B12, the “cAMP EC50 (1.0% HSA)” value was found to be 7.31 nM.

B13: the “cAMP EC50 (1.0% HSA)” value is 11.4 nM.

Consider B14, for which the “cAMP EC50 (1.0% HSA)” value was 6.31 nM.

Take B15: the “cAMP EC50 (1.0% HSA)” value worked out at 4.48 nM.
